# Measured values: IntAct's records for PubMed 19262567
# How the values were obtained:
# if4e_human EIF4E [1] = target: if4e_human EIF4E (UniProt P06730)
# if4e_human EIF4E [2] = target: if4e_human EIF4E (UniProt P06730); remark: listed apart in the source
# Chain of if4e_human EIF4E (P06730 whole entry): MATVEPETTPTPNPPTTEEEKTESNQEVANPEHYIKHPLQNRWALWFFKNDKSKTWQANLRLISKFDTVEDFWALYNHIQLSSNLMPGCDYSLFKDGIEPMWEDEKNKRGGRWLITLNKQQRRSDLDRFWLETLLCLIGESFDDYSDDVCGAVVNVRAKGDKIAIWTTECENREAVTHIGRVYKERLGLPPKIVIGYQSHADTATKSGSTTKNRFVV
effect of a mutation on the interaction (if4e_human EIF4E [1]),effect of a mutation on the interaction (if4e_human EIF4E [2]),Substance
disrupting interaction,,"Leucine-rich PPR motif-containing protein, mitochondrial (Homo sapiens) (from UniProt P42704) Y583A"
,disrupting interaction,"Leucine-rich PPR motif-containing protein, mitochondrial (Homo sapiens) (from UniProt P42704) Y441A"
